A word on the Kd: it is the constant that tells how readily two partners part at equilibrium.

The text below walks through data of PMC7932109 (Science (New York, N.y.), 2021).

B1: VHH V (VHH)
VHH: QVQLVETGGGLVQPGGSLRLSCAASGFTFSSYAMGWARQVPGKGLEWVSYIYSDGSTEYQDSVKGRFTISRDNAKSTVYLQMNSLKPEDTAVYYCATEGSLGGWGRDFGSWGQGTQVTVSS
notes: also called nanobody V; source: E. coli WK6, periplasmic extract, purified (Ni-NTA, desalting or gel filtration)
B2: VHH U (VHH)
VHH: QVQLVESGGGLVQPGGSLRLSCAASGFTLDYYAIGWFRQAPGKEREGVSCISSSGGSTHFADSVKGRFTISRDNAKNTVYLQMNSLIPEDTAVYYCAAQSGSYYWCGSDWHEYEYWGQGTQVTVSS
notes: also called nanobody U; source: E. coli WK6, periplasmic extract, purified (Ni-NTA, desalting or gel filtration)
B3: VHH W (VHH)
VHH: QVQLVESGGGLVQPGGSLRLSCAASGFTLDYYAIGWFRQAPGKEREGVSCISSSGDSTHYVDSVKGRFTISRDNAKNTVYLQMNSLKPEDTAVYYCAAQSGSYYWCGSDWHEYDYRGQGTQVTVSS
notes: also called nanobody W; source: E. coli WK6, periplasmic extract, purified (Ni-NTA, desalting or gel filtration)

For the assay, the target named is SARS-CoV-2 spike receptor binding domain (RBD), residues 319 to 541 (SARS-CoV-2, UniProt P0DTC2, biotinylated for SPR; DyLight 488 (NHS ester) for the ACE2-RBD binding assay; no label told for ELISA and crystals). The experiment in a line: SPR. The note with it: both partners purified.
With B1, the equilibrium dissociation constant (Kd) turned out to be 9 nM. That is a single-digit nanomolar value. In the case of B2, the Kd worked out at 21 nM. To B3 belongs 22 nM.
